Test results published in US20020034537A1, “Cationic diagnostic, imaging and therapeutic agents associated with activated vascular sites” (priority 2000, published 2002).
Where two headings read alike, the source gives them in different places.

Legend:
[1] = normal tissues, Adamson et al. (1988); cited from earlier work
[2] = Time constant of plasma clearance; format: in vivo, SCID mice; settings: i.v. bolus, arterial blood within 30 min
[3] = Isoelectric focusing of charge-modified proteins; format: physicochemical
Method: Isoelectric points of the proteins were determined by isoelectric focusing using polyacrylamide gel slabs on a vertical electrofocusing apparatus. pl was quantified by comparison with protein standards (Bio-Rad) after Coomassie Blue staining of the gels. The molecular weights of the proteins were analyzed by SDS-PAGE (Mini-Protean II; Bio-Rad) with and without reducing agent P-mercaptoethanol in the sample buffer.

[4] = Data from Yuan et al. (1995); cited from earlier work
[5] = Data from Yuan et al. (1995); cited from earlier work; remark: listed apart in the source

(x-lactalbumin: protein, MW=14,176; net charge −10 (Adamson et al. 1988)
microvascular permeability relative to ribonuclease [1]: approximately 50%

Anionized BSA: rhodamine-labeled bovine serum albumin anionized by succinylation
Median K, time constant of concentration decay in the plasma [2]: 40.8 100s

Cationized BSA: rhodamine-labeled bovine serum albumin cationized by conjugation with hexamethylenediamine
Median K, time constant of concentration decay in the plasma [2]: 12.7 100s
pI (range) [3]: 8.6-9.1

Native BSA: fluorescently labeled native bovine serum albumin, data from Yuan et al. (1995)
Median K, time constant of concentration decay in the plasma [4]: 80.5 100s
pI (range) [5]: 4.5
